Drawing on article PMC9485244, this text covers stoichiometry N (copies per receptor complex) for two substances.

Assay [1] concerns the target TatB^mNeon (E. coli TatB C-terminally tagged with mNeonGreen) (E. coli) (UniProt P69425). The assay is described as follows: single-molecule photobleaching step counting; individual CellMask-positive IMVs adsorbed on plasma-cleaned coverslips, narrow-field epifluorescence (488 nm), 50 mM Tris-HCl, 150 mM NaCl, pH 7.5; step histograms (manual and PDD) fit to oligomer models (monomer to octamer) with Poisson distribution of complexes in IMVs and binomial fluorescence detection efficiency; copies per Tat receptor complex.

Assay [2] has as its target TatC^mNeon (E. coli TatC C-terminally tagged with mNeonGreen) (E. coli) (UniProt P69423). Described as above.

Consider “TatB^mNeon (E. coli TatB C-terminally tagged with mNeonGreen) (from UniProt P69425 1-171) (natural protein)”, for which the stoichiometry N (copies per receptor complex) in assay [1] was determined as 4.
In turn, “TatC^mNeon (E. coli TatC C-terminally tagged with mNeonGreen) (from UniProt P69423 1-258) (natural protein)” returned a stoichiometry N (copies per receptor complex) in assay [2] of 4.
